Measured values as given in patent US20200399394A1 (published 2020).
Residue numbers refer to the chain shown, from its start.

T1: human CD39 (ectonucleoside triphosphate diphosphohydrolase 1) (UniProt P49961 1-510)
T1 chain: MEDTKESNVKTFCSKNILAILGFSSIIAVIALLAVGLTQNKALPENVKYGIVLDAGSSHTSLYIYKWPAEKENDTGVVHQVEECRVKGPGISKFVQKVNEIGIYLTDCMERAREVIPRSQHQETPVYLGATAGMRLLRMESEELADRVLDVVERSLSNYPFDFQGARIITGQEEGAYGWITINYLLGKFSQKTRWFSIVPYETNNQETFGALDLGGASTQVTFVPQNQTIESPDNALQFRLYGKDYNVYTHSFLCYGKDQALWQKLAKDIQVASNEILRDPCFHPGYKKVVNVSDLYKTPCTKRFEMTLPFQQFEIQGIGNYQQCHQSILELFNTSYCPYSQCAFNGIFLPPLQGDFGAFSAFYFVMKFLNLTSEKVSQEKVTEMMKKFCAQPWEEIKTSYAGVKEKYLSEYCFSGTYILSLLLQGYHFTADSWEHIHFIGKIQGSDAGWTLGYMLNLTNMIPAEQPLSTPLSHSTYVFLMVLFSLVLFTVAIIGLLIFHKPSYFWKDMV

B1: SRF365-C (antibody, V domains shown)
VH: QVQLVQSGAEVKKPGSSVKVSCKASGGTFSDKAISWVRQAPGQGLEWMGSILPIFGTANYAQKFQGRVTITADESTSTAYMELSSLRSEDTAVYYCAREAGYYRYRYFDLWGRGTLVTVSS
VL: EIVMTQSPATLSVSPGERATLSCRASQSVSSNLAWYQQKPGQAPRLLIYGASTRATGIPARFSGSGSGTEFTLTISSLQSEDFAVYYCQQHALWPLTFGGGTKVEIKR
B2: SRF367-C (antibody, V domains shown)
VH: B1 VH with D31S, K32E, A33G, R113K
VL: B1 VL
B3: SRF360-C (antibody, V domains shown)
VH: EVQLVESGGGLVKPGGSLRLSCAASGFTFSSYRMNWVRQAPGKGLEWVSSISSSSSSIWYADSVKGRFTISRDNAKNSLYLQMNSLRAEDTAVYYCAKGPRYDSSGYRWRYGMDVWGQGTTVTVSS
VL: DIQMTQSPSSLSASVGDRVTITCRASQSISSYLNWYQQKPGKAPKLLIYAASSLQSGVPSRFSGSGSGTDFTLTISSLQPEDFATYYCQQLYVDPPWTFGGGTKVEIKR
B4: SRF370-C (antibody, V domains shown)
VH: QVQLVQSGAEVKKPGSSVKVSCKASGGTFSTYAIGWVRQAPGQGLEWMGGIIPAFGTANYAQKFQGRVTITADESTSTAYMELSSLRSEDTAVYYCARDPVRRSPFDIWGQGTMVTVSS
VL: EIVLTQSPATLSLSPGERATLSCRASQSVSSYLAWYQQKPGQAPRLLIYDSSNRATGIPARFSGSGSGTDFTLTISSLEPEDFAVYYCQQSFLWPRTFGGGTKVEIKR
B5: SRF365-C (antibody, V domains shown)
VH: B1 VH
VL: B1 VL
B6: SRF367-C (antibody, V domains shown)
VH: B1 VH with D31S, K32E, A33G, R113K
VL: B1 VL
B7: SRF360-C (antibody, V domains shown)
VH: B3 VH
VL: B3 VL

Biological target: T1, human CD39 (ectonucleoside triphosphate …)
Test: MSD equilibrium; Fab

Row | Binder | Kd
1 | B1 | 51 pM
2 | B2 | 240 pM
3 | B3 | 44 pM

Biological target: T1, human CD39 (ectonucleoside triphosphate …)
Test: ForteBio (BLI); IgG, monovalent

Row | Binder | Kd
4 | B4 | 2590 pM
5 | B5 | 556 pM
6 | B6 | 1570 pM
7 | B7 | 772 pM
